Data taken from US5543498A, “Peptides to overcome inhibition of nerve growth” (The General Hospital Corporation, priority 1995, dated 1996).
Entries after “also recorded” stand apart in the source; their conditions may differ. No end group written: not given here.

Legend:
Go = Go (Homo sapiens, UniProt P09471); assay: GTPγ S binding to Go (nitrocellulose filtration assay); format: biochemical; settings: for effect of mutant decapeptides on GTPγ S binding to Go: peptide 250 μM, binding without peptides = 100%; for effect on GTPγ S binding to Go, dose response: oxidized (performic acid) vs control peptide, same concentration range
Procedure: The GAP-43 1-10 peptide was oxidized using performic acid according to the procedures of A. Roher et al., Proc. Natl. Acad. Sci. USA 83:2662 (1986). Briefly, 10 mM peptide was incubated with formic acid solution containing 3% H2 O2 at 25° C. for one hour. The activation state of Go was determined in a nitrocellulose filtration assay as described by S. M. Strittmatter et al., Proc. Natl. Acad. Sci. USA 90:5327 (1993).
Both cysteine residues at positions 3 and 4 in the native GAP-43 1-10 peptide were replaced with methionine, tyrosine, aspartate, glutamate, lysine, arginine, serine, and tryptophan. These mutant peptides were tested for their ability to influence GTPγ S binding to Go.

[1] = test system: Chick dorsal root ganglion (DRG) neurons; format: cell-based
Procedure: Chick DRGs from embryonic day 7 (E7) were explanted onto laminin-coated chamber slides in F12 medium with 10 ng/ml nerve growth factor and 10% fetal bovine serum. After 20 hours, peptide solutions or phosphate-buffered saline (PBS) in 1 mM DTT was added to the explants (225 μl) and the mixture incubated at 27° C. for one hour. BME, prepared following the procedure of J. A. Raper and J. P. Kapfhammer, Neuron 2:21 (1990), was added to the explants and incubated for 30 minutes. For each explant, all growth cones were scored as collapsed or fan-shaped (M. Igarashi et al., Science 259:77 (1993)).
In another series of experiments the GAP-43 1-10 peptide was added into the culture medium at 10^-8 M one hour prior to the addition of BME. After 30 minutes incubation with BME, the explant was fixed in glutaraldehyde and its growth cones were scored.
After exposing the PTX treated neurons to BME and the GAP-43 1-10, the amount of growth cone collapse was measured.
The procedure described in Example 2 was followed with the exception that one hour prior to the addition of BME (0.15 mg protein/ml) to the DRG culture medium, either the methionine or tyrosine mutant peptide was introduced at a concentration of 10^-4 M.

Sequence of Go (P09471 whole entry): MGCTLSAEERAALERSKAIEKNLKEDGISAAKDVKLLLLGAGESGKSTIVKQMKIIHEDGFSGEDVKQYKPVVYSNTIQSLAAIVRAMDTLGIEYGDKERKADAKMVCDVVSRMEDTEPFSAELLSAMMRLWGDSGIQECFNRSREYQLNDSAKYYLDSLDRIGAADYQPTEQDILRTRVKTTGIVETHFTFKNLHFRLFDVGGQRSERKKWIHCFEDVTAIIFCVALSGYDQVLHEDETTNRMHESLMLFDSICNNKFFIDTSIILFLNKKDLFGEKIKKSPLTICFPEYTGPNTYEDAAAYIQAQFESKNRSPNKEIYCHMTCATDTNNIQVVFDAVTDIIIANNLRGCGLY

Substance: [3Y, 4Y]GAP43 (1-10) (MLYYMRRTKQ) [peptide-Y, GAP-43 1-10 peptide with both cysteines at positions 3 and 4 replaced with tyrosine]
- effect of mutant decapeptides on GTPγ S binding to Go (Go): attenuate GTPγ S binding to Go; also recorded: antagonist of G protein stimulation
- effect of mutant decapeptides on GTPγ S binding to Go (Go; listed as tyrosine): inhibits GTPγ S binding to Go
- shift of BME dose response: BME needed to cause 50% collapse ([1]; DRG, 10^-4 M peptide, relative to no peptide): about twice
- inhibition of growth cone collapse induced by BME ([1]; DRG, BME 0.15 mg protein/ml, peptide 10^-4 M one hour before BME): approximately 30%
- effect of the peptides by themselves on growth cones ([1]; doses used for the BME dose response (FIG. 3C)): do not have any evident effect by themselves

Substance: oxidized GAP-43 1-10 peptide: GAP-43 1-10 peptide oxidized using performic acid (MLCCMRRTKQ; also: oxidized using performic acid)
- effect on GTPγ S binding to Go, dose response (Go; listed as Oxidation of the GAP-43 1-10 N terminus): dose-dependent inhibition
- effect on GTPγ S binding to Go, dose response (Go; listed as Oxidation of the GAP-43 1-10 N-terminus): dose-dependent inhibition
- effect on GTPγ S binding to Go, dose response (Go; listed as oxidation of the peptide by performic acid): inhibitory for Go

Substance: pertussis toxin [PTX, reference compound]
- effect on growth cone collapse induced by BME ([1]; PTX 20 ng/ml, BME 0.075 mg/ml): do not inhibit the collapse induced by BME
- effect on GAP-43 1-10 peptide potentiation of BME-induced growth cone collapse ([1]; PTX 20 ng/ml, BME 0.075 mg/ml plus 10^-8 M GAP-43 1-10 peptide, listed as pertussis toxin): blocks
